Results published in paper PMC7241850.

Legend:
[1] = molecular target: HIV-1 Env E1 R563Q (HIV-1 (clade B, individual 653116))
[2] = molecular target: HIV-1 Env NE1 Q563R (HIV-1 (clade B, individual 653116))

For HIV-1 IIIB C34 Peptide, the IC50 of inhibition of infection of TZM-bl cells by pseudovirus (luciferase) [1] was 0.6 µg/mL and the IC50 of inhibition of infection of TZM-bl cells by pseudovirus (luciferase) [2] was 0.04 µg/mL.
